Assay results published in the supplement of paper PMC7125110.
± gives the standard error. This sample holds only a part of the variants without activity.

B1: glmS ribozyme (parent)
chain: AUAAAAGCGCCAGAACUACAGAAAUGUAGUUGACGAGGAGGAGGUUUAUCGAAUUUUCGGCGGAUGCCUCCAAA

What was measured:
Settings in all cases: with glucosamine-6-phosphate
glucosamine-6-phosphate [1] = variants of: B1; assay: self-cleavage kobs at 40 uM GlcN6P; higher = faster cleavage; RNA array
Method in brief: (§1)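 A hybridised Cy3 probe tracked barcoded ribozyme variants, transcribed in situ by E. coli RNA polymerase on sequenced MiSeq chips, at 37 °C. The variants received 40 μM to 10 mM glucosamine-6-phosphate in HEPES/KCl/Mg(OAc)2 buffer. kobs came from decay fits and kcat and KM from weighted Michaelis–Menten fits.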

glucosamine-6-phosphate [2] = variants of: B1; assay: self-cleavage kobs at 640 uM GlcN6P; higher = faster cleavage; RNA array
Method in brief: as §1

glucosamine-6-phosphate [3] = variants of: B1; assay: self-cleavage kobs at 10000 uM GlcN6P; higher = faster cleavage; RNA array
Method in brief: as §1

glucosamine-6-phosphate [4] = variants of: B1; assay: self-cleavage kobs at 160 uM GlcN6P; higher = faster cleavage; RNA array
Method in brief: as §1

glucosamine-6-phosphate [5] = variants of: B1; assay: self-cleavage kobs at 2500 uM GlcN6P; higher = faster cleavage; RNA array
Method in brief: as §1

| Variant | self-cleavage kobs at 40 uM GlcN6P (glucosamine-6-phosphate [1]) [s⁻¹] | self-cleavage kobs at 640 uM GlcN6P (glucosamine-6-phosphate [2]) [s⁻¹] | self-cleavage kobs at 10000 uM GlcN6P (glucosamine-6-phosphate [3]) [s⁻¹] | self-cleavage kobs at 160 uM GlcN6P (glucosamine-6-phosphate [4]) [s⁻¹] | self-cleavage kobs at 2500 uM GlcN6P (glucosamine-6-phosphate [5]) [s⁻¹] |
| --- | --- | --- | --- | --- | --- |
| U30G G62U | < 1e-05 | < 1e-05 | < 1e-05 |  |  |
| C11A U69G | 5.85e-05 ± 9.2e-06 | 0.000166 ± 4.5e-05 | 5.17e-05 ± 1.1e-05 | 0.000398 ± 0.00018 |  |
| C11A C16A U47C C61U | < 1e-05 |  |  |  | < 1e-05 |
| C10A A33U | < 1e-05 |  | < 1e-05 |  |  |
| G9U G51C | < 1e-05 |  | < 1e-05 | < 1e-05 |  |
| C10A G43C | < 1e-05 | < 1e-05 | < 1e-05 | < 1e-05 |  |
| G32U A36U U46G A48U U56C G60U C61U | < 1e-05 | < 1e-05 | < 1e-05 |  |  |
| G9A C61A | < 1e-05 | < 1e-05 | < 1e-05 | < 1e-05 | < 1e-05 |
| A12G C34G G41C C50U U55A | < 1e-05 | < 1e-05 |  |  |  |
| A39G G60U | < 1e-05 | < 1e-05 |  | < 1e-05 |  |
| A14G C16G G38U C50G C67A | 0.000102 ± 1.6e-05 |  | 9.71e-05 ± 2.1e-05 |  |  |
| C10U G37U G43U A52G G60U | < 1e-05 |  | < 1e-05 |  | < 1e-05 |
| A14G U45G A64U | < 1e-05 |  |  |  |  |
| G29U U46G C50U G60U G66U | < 1e-05 |  |  |  |  |
| C11G G29C U31G G37A C68G | < 1e-05 |  |  |  |  |
| G13U G29U A52G C67G | 6.42e-05 ± 1.9e-05 |  | 8.86e-05 ± 1.8e-05 |  |  |
| A6U C34U | < 1e-05 | < 1e-05 | < 1e-05 | < 1e-05 |  |
| G13A C34G C50U C67G | 0.000108 ± 3.3e-05 | 0.00142 ± 0.00036 | 8.5e-05 ± 2.6e-05 |  |  |
| G29U C50G A53G U55G C67G | 0.000349 ± 0.00015 |  |  |  |  |
| C11A C34U | < 1e-05 | < 1e-05 |  |  |  |
| C8G U45C G62A | < 1e-05 |  | < 1e-05 |  |  |
| G41A C67G C70U | 4.65e-05 ± 2e-05 | 0.000188 ± 5.7e-05 | 0.00166 ± 0.00038 | 0.000107 ± 3.4e-05 | 0.000826 ± 0.00023 |
| G13C A15C G51U | < 1e-05 |  |  |  |  |
| A15U C50G | 3.42e-05 ± 8.1e-06 | 0.000494 ± 0.00023 |  | 8.86e-05 ± 1.4e-05 | 7.94e-05 ± 1.4e-05 |
| A6G C11U A33U G60U | < 1e-05 | < 1e-05 | < 1e-05 |  | < 1e-05 |

| Variant | self-cleavage kobs at 40 uM GlcN6P (glucosamine-6-phosphate [1]) [s⁻¹] | self-cleavage kobs at 640 uM GlcN6P (glucosamine-6-phosphate [2]) [s⁻¹] | self-cleavage kobs at 10000 uM GlcN6P (glucosamine-6-phosphate [3]) [s⁻¹] | self-cleavage kobs at 160 uM GlcN6P (glucosamine-6-phosphate [4]) [s⁻¹] | self-cleavage kobs at 2500 uM GlcN6P (glucosamine-6-phosphate [5]) [s⁻¹] |
| --- | --- | --- | --- | --- | --- |
| C58U U65A | < 1e-05 |  |  | < 1e-05 |  |
| G35A U69A | < 1e-05 | < 1e-05 |  | < 1e-05 | < 1e-05 |
| G7C C71G | < 1e-05 |  | < 1e-05 |  | < 1e-05 |
| G32C U45C C58G G59U | < 1e-05 |  |  |  |  |
| A14C U49A G63A | < 1e-05 |  |  |  |  |
| G29C A48U | < 1e-05 |  |  | < 1e-05 |  |
| G44C U46G | < 1e-05 | < 1e-05 |  | < 1e-05 | < 1e-05 |
| G38A C58A G66A | < 1e-05 |  | < 1e-05 |  |  |
| C10U G43U C70A | < 1e-05 |  |  |  |  |
| G29C U45C G62A | < 1e-05 |  |  |  | < 1e-05 |
| G9C A15G C50G G59C C70G | 0.00011 ± 3.6e-05 |  | 0.000264 ± 5.3e-05 |  |  |
| A42U G66C | < 1e-05 |  |  | < 1e-05 |  |
| A53U U55C | 0.000338 ± 7.3e-05 | 0.00434 ± 0.00089 | 0.0266 ± 0.0065 | 0.00118 ± 0.0004 | 0.00602 ± 0.0019 |
| A33U A64U | < 1e-05 | < 1e-05 | < 1e-05 |  |  |
| U46C G60A | < 1e-05 | < 1e-05 |  | < 1e-05 |  |
| U47C A48U C70U | < 1e-05 | 3.27e-05 ± 1.2e-05 | 0.00044 ± 9.8e-05 |  |  |
| C70U | 0.00149 ± 4.2e-05 | 0.0095 ± 0.00039 | 0.0554 ± 0.0035 | 0.00417 ± 0.00021 | 0.0161 ± 0.0012 |
| A15G G41A | 0.000137 ± 1.9e-05 | 0.000767 ± 0.00025 | 0.00309 ± 0.00072 | 0.000239 ± 4.1e-05 | 0.0013 ± 0.00038 |
| U31G A42C C70U | < 1e-05 |  |  |  |  |
| G7C G40C U54G G62A | < 1e-05 |  |  |  |  |
| U56G G59A C68A | < 1e-05 | < 1e-05 | < 1e-05 |  |  |
| G51U G63U A64C | < 1e-05 |  |  |  | < 1e-05 |
| G29C U31C G37A C67A | < 1e-05 |  | < 1e-05 |  | < 1e-05 |
| A6G A48C | < 1e-05 | < 1e-05 | < 1e-05 |  |  |
